From paper PMC5344980, “PARP1 promotes gene expression at the post-transcriptional level by modulating the RNA-binding protein HuR” come the findings set out here.

Data set [1] deals with T1, GST-HuR (human? (species ; plasmid …, UniProt Q15717 1-326). Nature of the data set: EMSA; no PARP1; 3 mM MgCl2, 40 mM KCl, 5% glycerol, 2 mM DTT, 2 ug tRNA, 20 uM (so in the source) 5'-biotin RNA, 40 min at room temperature; 6% native acrylamide gel; protein 100-160. The note with it: protein: recombinant; tags: GST; label: 5' biotin.
Data set [2] concerns the target T1, GST-HuR. Nature of the data set: EMSA; no PARP1; Kd value only in figure; 3 mM MgCl2, 40 mM KCl, 5% glycerol, 2 mM DTT, 2 ug tRNA, 20 uM (so in the source) 5'-biotin RNA, 40 min at room temperature; 6% native acrylamide gel; protein 100-160. The note with it: protein: recombinant; tags: GST; label: 5' biotin.
The target of a further data set is PARP1 (UniProt P09874 2-1014). Nature of the data set: EMSA; PARylation buffer, titrated sonicated DNA; no shifted bands; 3 mM MgCl2, 40 mM KCl, 5% glycerol, 2 mM DTT, 2 ug tRNA, 20 uM (so in the source) 5'-biotin RNA, 40 min at room temperature; 6% native acrylamide gel; protein 100-160. The note with it: protein: recombinant; label: 5' biotin.
Data set [3] deals with T1, GST-HuR. The experiment in a line: EMSA; no PARP1; several shifted bands; 3 mM MgCl2, 40 mM KCl, 5% glycerol, 2 mM DTT, 2 ug tRNA, 20 uM (so in the source) 5'-biotin RNA, 40 min at room temperature; 6% native acrylamide gel; protein 100-160. The note with it: protein: recombinant; tags: GST; label: 5' biotin.
In data set [4] the target is T1, GST-HuR. The experiment in a line: EMSA; with PARP1 + PJ34; enhancement abolished; 3 mM MgCl2, 40 mM KCl, 5% glycerol, 2 mM DTT, 2 ug tRNA, 20 uM (so in the source) 5'-biotin RNA, 40 min at room temperature; 6% native acrylamide gel; protein 100-160. The note with it: protein: recombinant; tags: GST; label: 5' biotin.

T1 sequence (Q15717 whole entry): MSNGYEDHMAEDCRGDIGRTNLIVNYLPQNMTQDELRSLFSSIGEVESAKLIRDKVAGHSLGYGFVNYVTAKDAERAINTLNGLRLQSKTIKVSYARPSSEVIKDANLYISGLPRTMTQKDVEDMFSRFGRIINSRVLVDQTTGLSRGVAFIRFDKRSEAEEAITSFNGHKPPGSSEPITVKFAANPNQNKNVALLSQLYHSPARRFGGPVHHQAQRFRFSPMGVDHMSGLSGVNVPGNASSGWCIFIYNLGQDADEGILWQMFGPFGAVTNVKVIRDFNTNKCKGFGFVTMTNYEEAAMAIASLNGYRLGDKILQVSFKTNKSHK
Chain of PARP1 (P09874 2-1014): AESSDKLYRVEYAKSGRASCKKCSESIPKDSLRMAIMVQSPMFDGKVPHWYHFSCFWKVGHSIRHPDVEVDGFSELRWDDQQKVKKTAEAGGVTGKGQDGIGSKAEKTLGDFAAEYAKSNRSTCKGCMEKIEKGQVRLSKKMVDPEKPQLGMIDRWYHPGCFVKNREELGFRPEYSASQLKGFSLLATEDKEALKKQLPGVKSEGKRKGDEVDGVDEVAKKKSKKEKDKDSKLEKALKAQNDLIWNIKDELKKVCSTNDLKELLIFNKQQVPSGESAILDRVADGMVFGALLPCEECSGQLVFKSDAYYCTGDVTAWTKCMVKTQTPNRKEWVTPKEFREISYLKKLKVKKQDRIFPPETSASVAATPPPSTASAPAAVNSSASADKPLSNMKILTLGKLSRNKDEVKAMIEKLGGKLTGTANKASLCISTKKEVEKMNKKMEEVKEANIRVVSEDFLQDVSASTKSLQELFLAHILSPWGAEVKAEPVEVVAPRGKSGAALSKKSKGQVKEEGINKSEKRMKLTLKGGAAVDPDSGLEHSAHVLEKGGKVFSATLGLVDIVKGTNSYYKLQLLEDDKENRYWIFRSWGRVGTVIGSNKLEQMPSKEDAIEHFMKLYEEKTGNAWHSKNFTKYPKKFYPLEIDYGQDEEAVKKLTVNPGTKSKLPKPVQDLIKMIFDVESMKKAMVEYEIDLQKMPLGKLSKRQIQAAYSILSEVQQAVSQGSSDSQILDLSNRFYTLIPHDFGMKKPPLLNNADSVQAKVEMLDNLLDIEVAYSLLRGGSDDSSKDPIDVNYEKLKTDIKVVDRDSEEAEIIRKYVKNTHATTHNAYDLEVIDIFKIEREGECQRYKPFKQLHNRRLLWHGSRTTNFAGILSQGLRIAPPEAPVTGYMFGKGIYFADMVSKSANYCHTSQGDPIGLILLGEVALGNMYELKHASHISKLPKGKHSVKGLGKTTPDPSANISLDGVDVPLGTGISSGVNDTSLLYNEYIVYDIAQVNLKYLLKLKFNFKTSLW

Turning to GUGGACACAUUUAUUUAUUCAUGUA (ssRNA) [Cxcl2-ARE3 RNA oligo], in the data set with GST-HuR [1], the binding result is recorded as “no binding”. As to AGUUCACUUAUUUAUUUAUCUAUGU (ssRNA) [Cxcl2-ARE1 RNA oligo], the binding result in the data set with GST-HuR [2] is given as “binds”.

Take AUUUAUUUAUUUAUUUAUUUAUUUA (ssRNA) [AU-rich RNA oligo (tandem ARE)]: the binding result with PARP1 is given as “no binding”; with GST-HuR [3], “binds”.

Turning to CUAUGUAUUUAUUUAUUUAUUAAUU (ssRNA) [Cxcl2-ARE2 RNA oligo], the binding result with GST-HuR [4] is reported as “binds”.
